Reference: publication PMC9800556, “Kinetics of DNA strand transfer between polymerase and proofreading exonuclease active sites regulates error correction during high-fidelity replication” (The Journal of Biological Chemistry, 2022)

How the values were obtained:
[1] = target: T1, T7 DNA polymerase (T7 DNA pol; T7 gp5 + E. coli thioredoxin) (Escherichia phage T7, UniProt P00581); experiment: rapid-quench ssDNA excision, denaturing PAGE, global fit (KinTek Explorer); type: biochemical; settings: read-out: Best fit
T1 construct: gene 5; wild-type exo-proficient (x+) gp5 catalytic subunit, purified as previously described, reconstituted with at least twofold molar excess of E. coli thioredoxin; with Thioredoxin 1
T1 sequence (P00581 whole entry): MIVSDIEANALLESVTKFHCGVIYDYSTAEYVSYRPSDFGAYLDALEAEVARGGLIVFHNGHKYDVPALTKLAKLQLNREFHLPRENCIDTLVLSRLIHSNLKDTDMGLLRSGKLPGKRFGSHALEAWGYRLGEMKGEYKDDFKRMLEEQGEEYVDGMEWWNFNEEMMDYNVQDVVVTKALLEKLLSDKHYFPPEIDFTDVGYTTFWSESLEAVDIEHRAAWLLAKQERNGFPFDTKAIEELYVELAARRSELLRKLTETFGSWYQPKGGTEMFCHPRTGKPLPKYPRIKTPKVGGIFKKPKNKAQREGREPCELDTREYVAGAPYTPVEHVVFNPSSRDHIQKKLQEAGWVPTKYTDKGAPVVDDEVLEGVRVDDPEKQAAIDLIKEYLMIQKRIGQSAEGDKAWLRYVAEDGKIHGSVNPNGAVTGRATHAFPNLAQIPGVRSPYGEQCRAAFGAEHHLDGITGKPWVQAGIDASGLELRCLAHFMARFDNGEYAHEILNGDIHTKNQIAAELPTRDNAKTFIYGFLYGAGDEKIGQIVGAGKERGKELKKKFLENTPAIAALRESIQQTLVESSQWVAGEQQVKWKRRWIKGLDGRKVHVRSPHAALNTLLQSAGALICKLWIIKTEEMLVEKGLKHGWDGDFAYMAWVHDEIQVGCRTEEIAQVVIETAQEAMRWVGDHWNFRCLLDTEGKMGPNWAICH
T1 sequence (P0AA25 2-109 partner): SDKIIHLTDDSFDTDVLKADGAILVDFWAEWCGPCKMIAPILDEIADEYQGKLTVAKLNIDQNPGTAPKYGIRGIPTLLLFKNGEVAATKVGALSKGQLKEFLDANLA
Description: rapid-quench ssDNA excision, denaturing PAGE, global fit (KinTek Explorer) on T7 DNA polymerase (T7 DNA pol; T7 gp5 + E. coli thioredoxin) | dCMP binds to the free enzyme, acting as a weak competitive inhibitor for ssDNA binding

[2] = target: T2, T7 DNA polymerase gp5 (wild-type, exo+);thioredoxin (accessory protein) (bacteriophage T7;Escherichia coli, UniProt P00581;P0AA25 1-704;2-109, |); experiment: equilibrium fluorescence titration (Trp-tCo FRET), quadratic fit; 2 uM thioredoxin; net Kd over pol, intermediate and exo sites; Mg2+ not stated for this titration; T7 reaction buffer (composition and pH not given in the material), 12.5 mM Mg2+; 20 C stated for rapid-quench; settings: protein: recombinant;recombinant; tags: ;; copies: 1;1; label: tCo; primer/template, 18 nt template 5' overhang, 3'-terminal C:C mismatch
T2 sequence (P00581 whole entry, chain 1 of 2): as the sequence (P00581 whole entry) above
T2 sequence (P0AA25 2-109, chain 2 of 2): as the sequence (P0AA25 2-109 partner) above

[3] = target: T2, T7 DNA polymerase gp5 (wild-type, …); experiment: equilibrium fluorescence titration (Trp-tCo FRET), quadratic fit; 12.5 mM Mg2+, 2 uM thioredoxin; net Kd over all sites; T7 reaction buffer (composition and pH not given in the material), 12.5 mM Mg2+; 20 C stated for rapid-quench; settings: protein: recombinant;recombinant; tags: ;; copies: 1;1; label: tCo; primer/template, 18 nt template 5' overhang, A:A mismatch buried by one terminal C:G pair
[4] = target: T2, T7 DNA polymerase gp5 (wild-type, …); experiment: stopped-flow fluorescence anisotropy, global fit (with tCo-27-PThio titration); 12.5 mM Mg2+; k1 1100 uM-1 s-1, k-1 44 s-1; exo site; T7 reaction buffer (composition and pH not given in the material), 12.5 mM Mg2+; 20 C stated for rapid-quench; settings: protein: recombinant;recombinant; tags: ;; copies: 1;1; label: 5' 6-FAM; single strand
[5] = target: T2, T7 DNA polymerase gp5 (wild-type, …); experiment: equilibrium fluorescence titration (Trp-tCo FRET), hyperbolic fit; 12.5 mM Mg2+; exo site; T7 reaction buffer (composition and pH not given in the material), 12.5 mM Mg2+; 20 C stated for rapid-quench; settings: protein: recombinant;recombinant; tags: ;; copies: 1;1; label: tCo; single strand

Molecule: Nc1ccn([C@H]2C[C@H](O)[C@@H](COP(=O)(O)O)O2)c(=O)n1 [dCMP]
- Ki [1]: 5650 µM

B1: tCo-27-PThio/45-3'MM-PThio (dsDNA)
DNA 1: CCGTCGCAGCCGTCCAACCAACTACAC
DNA 2: GGACGGCATTGGATCGATCTGTAGTTGGTTGGACGGCTGCGACGG
modifications: primer: tCo at position 25, Sp phosphorothioate at the 3'-terminal linkage; template: phosphorothioate at the 3'-terminal linkage
- Kd [2]: 0.0007 ± 0.0001 µM

B2: tCo-27-PThio/45-BMM-PThio (dsDNA)
DNA 1: CCGTCGCAGCCGTCCAACCAACTACAC
DNA 2: GGACGGCATTGGATCGATGAGTAGTTGGTTGGACGGCTGCGACGG
modifications: primer: tCo at position 25, Sp phosphorothioate at the 3'-terminal linkage; template: phosphorothioate at the 3'-terminal linkage
- Kd [3]: ~0.0005 µM

Molecule: CCGTCGCAGCCGTCCAACCAACTACAC (ssDNA, Sp phosphorothioate at the 3'-terminal linkage (A*C)) [FAM-27-PThio]
- Kd [4]: 0.04 ± 0.0014 µM

B3: tCo-27-PThio (ssDNA)
DNA: CCGTCGCAGCCGTCCAACCAACTACAC
modifications: tCo (1,3-diaza-2-oxophenoxazine, C analog) at position 25; Sp phosphorothioate at the 3'-terminal linkage
- Kd [5]: ~0.06 µM
